Data published in patent publication US20260069689A1 (Regeneron, published 2026).
Where a chain is given by its changes, count along the chain named.

B1: mAb14255 (antibody, V domains shown)
VH: QVQLQESGPGLVKPSETLSLTCTVSGGSISGYYWSWIRQPPGKGLDWIGYIYYRGNTNYNPSLKSRVTISVDTSNNQFSLKLSSVTAADTAVYYCARYGEGYGDASGYHFDYWGQGTLVTVSS
VL: QSALTQPASVSGSPGQSITISCTGTSSDVGSYNLVSWYQQHPGKAPKLMIYEDSKRPSGVANPFSGSKSGNTASLTISGLQAEDEADYYCSSYAGSSTWVFGGGTKLTVLG
B2: mAb14294 (antibody, V domains shown)
VH: EVQLVESGGGLVQPGGSLRLSCAASGFTFSNHWMDWVRQAPGKGLVWVSRINSDGSSTDYADSVRGRFTMSRDNAKNTLYLQMSSLRAEDTAVYYCAREGMIFGAVIIPGWYFDLWGRGALVTVSS
VL: EIVLTQSPGTLSLSPGERATLSCRASQSVSSSQLAWYQQKPGQAPRLLIYGASSRATGIPDRFSGSGSGTDFTLTISRLEPEDFAVYYCQQYDSFGQGTKLEIKR
B3: mAb14315 (antibody, V domains shown)
VH: QVQLVQSGAEVKKPGSSVKVSCKASGDTFSTYAINWVRQAPGQGLEWMGRFIHIFGTANYAQKFQGRVTITADESTSTAYMELRSLRSEDTAVYYCARDGVDYGDYRPDYWGQGTLVTVSS
VL: EIVLTQSPGTLSLSPGERATLSCRASQSVSSNYLAWYQQKPGQAPRLLIYGASSRATGIPERFSGSGSGTDFTLTISRLEPEDFAVYYCQQYGSSLYTFGQGTKLEIKR
B4: mAb13458 (antibody, V domains shown)
VH: EVQLVESGGGLVQPGRSLRLSCAASGFTFDDYAMHWVRQAPGKGLEWVSGISWNSGSIGYADSVKGRFTISRDNAKNSLYLQMNSLRAEDTALYYCAKDIGITTPYWGQGTLVTVSS
VL: AIQMTQSPSSLSASVGDRVTITCRASQDIRNDLGWYQQKPGKAPKLLIYSASSLQTGVPSRFSGSGSGTDFTLTISSLHPEDFATYYCLQDYWYTWTFGQGTKVEIKR
B5: mAb13457 (antibody, V domains shown)
VH: B4 VH
VL: B4 VL with W93D
B6: mAb13459 (antibody, V domains shown)
VH: B4 VH
VL: B4 VL with W93N, T95V
B7: mAb14282 (antibody, V domains shown)
VH: QVQLVQSGAEVKKPGASVKVSCKASGYIFTDHYMHWVRQAPGQGLEWMGWINPNSGATNYAQNFQGRVTMTRDTSIITVYMELSRLRSDDTAVYYCARDSSPYMIRYTMDVWGQGTTITVSS
VL: QSALTQPASVSGSPGQSITISCTGTSSDVGSYNLVSWYQQHPGKAPKLMIYELTKRPSGVSNRFSGSKSGNTASLTISGLQAEDEADYYCSSYRGSVTDVVFGGGTKLTVLG
B8: mAb14247 (antibody, V domains shown)
VH: QITLKESGPTLVKPTQTLTLTCTFSGFSLSTSAVGVGWIRQPPGKALEWLALIYWDDDKRYSPSLKSRLTITKDTSKNQLVLTMTNVDPVDTATYYCAHHTIQLIFDYWGQGTLVTVSS
VL: QSALTQPASVSGSPGQSITISCTATSSDVGNYNYVSWYQQHPGKAPKLMIYEVSNRPSGVSNRFSGSKSGNTASLTISGLQAEDEADYYCSSYTSSSTPLVFGGGTKLTVLG
B9: mAb14230 (antibody, V domains shown)
VH: EVQLVESGGGLIQPGRSLRLSCAASGFTFDDYAMHWVRQAPGKGLEWVSGISWNSVSIDYADSVKGRFTISRDNAKNSLYLQMTSLTVEDTALYYCAKAFGYETLTGSDYFAYWGPGTLVTVSS
VL: EIVLTQSPGTLSLSPGERATLSCRASQTVISTYLAWYQQKPGQSPRLLIYGASSRATGIPDRFSGSGSGTDFTLTISRLEPEDFAVYYCQQYGSSPQLTFGGGTKVEIKR
B10: mAb14235 (antibody, V domains shown)
VH: QITLKESGPTLVKPTQTLTLTCTFSGFSLNTGGVGVGWIRQPPGNALEWLALIYWDDDKRYNPSLKTRLTISKDTSKNQVVLTMTNMDPVDTATYFCAHLTIAVIVDFWGQGTLVTVSS
VL: QSALTQPASVSGSPGQSITISCTATSSDVGTYNYVSWFQHHPGKAPKLMIYEVTNRPSGVSNRFSGSKSGNTASLTISGLQAEDEADYYCSSYTTTSIVFGGGTKLTVLG
B11: mAb14289 (antibody, V domains shown)
VH: QVQLVQSGPEVKKPGASVKVSCKASGYTFTSYAISWVRQAPGQGLEWMGWISAYNGNTNYAQKLQGRVTMTTDTFTSTAYMELRSLRSDDTAVYYCAVPADHITFDYWGQGTLVTVSS
VL: EIVLTQSPGTLSLSPGERATLSCRASQSVSSYLAWYQQKPGQAPRLLIHGASSRATGIPDRFSGSGSGTDFTLTISRLEPEDFAVYYCQQYGSSFLTFGGGTKVEIKR
B12: mAb14283 (antibody, V domains shown)
VH: QVQLQESGPGLVKPSGTLSLTCDVSGGSISSNNWWSWVRQRPGKGLQWIGEIYHNENTNYNPSLKSRVIMSIDKSKNQFSLKLTSVTAADTAVYYCARGDVLDWFDPWGQGTLVTVSS
VL: QSALTQPASVSGSPGQSTTISCTGTSSDVGGYNYVSWYQQYPGKAPKLMIYDVTNRPSGVSHRFSGSKSGNTASLTISGLQAEDEADYYCSSYTSSSTVIFGGGTKLTVLG
B13: mAb14286 (antibody, V domains shown)
VH: QVQLVQSGAEVKKPGASVKVSCKASGYTFTDYFIHWVRQAPGQGLEWMGWINPTSGGTNYAQKFRGRVTMTRDTSISTAYVELSRLRSDDTALYYCARDLPFYSDTKQFDYWGQGTLVTVSS
VL: B12 VL with S13Y, T18I, Y41H, Y51F, T54S, H62N, I77F, V99L, I100V
B14: mAb14257 (antibody, V domains shown)
VH: EVQLVESGGGLVQPGGSLRLSCAASGFTVSRSYMNWVRQAPGKGLEWVSVVFTGGTTKHTDSVKGRFTISRDNSMNTLYLQMNSLRPEDTAVYYCARVAIVETTGAFDIWGQGTMVTVSS
VL: QSVLTQPPSVSGAPGQRVTISCTGTSSNIGADFDVHWYQQFPGTAPKLLIYGHTNRPSGIPDRFSGSKSGTSASLAITGLQAEDEADYYCQSYDSSLSGSVVFGGGTKLTVLG
B15: mAb14313 (antibody, V domains shown)
VH: EVQLVESGGGLVQPGRSLRLSCVASGFTFDDSAMHWVRQPPGKGLEWVSGISWNSGIIGYAESVKGRFIISRDNAKNSLFLHMRGLRPEDTAVYYCARDRLELSYYYYGMDVWGQGTTVTVSS
VL: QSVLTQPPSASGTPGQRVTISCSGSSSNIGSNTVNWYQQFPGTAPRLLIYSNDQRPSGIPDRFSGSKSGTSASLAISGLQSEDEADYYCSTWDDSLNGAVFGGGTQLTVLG
B16: mAb14258 (antibody, V domains shown)
VH: QLQLQESGPGLVKPSETLSLICTGSGDSISSSHYYWGWIRQPPGKGLEWIGSTYFSGSTYYNPSLKSRVSISVDTSKNQVSLKLISVTAADTAVYYCAREMGATLGDYWGPGTLVTVSS
VL: QSVLTQPPSASGTPGQRVTISCSGSSSNIGNNYVYWYQQFPGTTPRLLIYRNNERPSGVPDRFSGSKSGTSASLVISGLRSEDEADYYCAAWDDSLSAHYVFGTGTKVTVLG
B17: mAb14281 (antibody, V domains shown)
VH: QVQLVQSGADVKKPGASVKVSCKTSGYIFTGYYIHWVRQAPGQGLEWMGWINPNSGGTNSAQKFQGRVTMTRDTSISTVYMELSRLRSDDTAVYYCAKSNSFSVLDYNFDYWGQGTLVTVSS
VL: SSELTQDPAVSVALGQTVRITCQGDSLRSYYASWYQQKPGQAPVLVIYDKNNRPSGIPDRFSGSSSGNTASLTITGAQAEDEADYYCNSRDSSRNHLVVFGGGTKLTVLG

The binders below were run against T1, SARS-CoV2 Spike ecto foldon Trimer expressed with a C-terminal myc-myc-hexahistidine (SARS-CoV-2, UniProt P0DTC2 14-1213) (assay: SPR Biacore, mAb captured by anti-hFc, 25C).
T1 construct: extracellular domain

Row | Binder | Kd [pM] | koff [s⁻¹] | kon [M⁻¹ s⁻¹] | t½ [h]
1 | B1 | 70.6 | 0.000138 | 1.96e+06 | 1.39
2 | B2 | 32.9 | 2.29e-05 | 697000 | 8.39
3 | B3 | 48.3 | 3.15e-05 | 652000 | 6.1
4 | B4 | 35.1 | 4.26e-05 | 1.21e+06 | 4.52
5 | B5 | 71.8 |  |  | 3.49
6 | B6 | 38.9 | 5.46e-05 | 1.41e+06 | 3.52
7 | B7 | 62.4 | 0.000133 | 2.14e+06 | 1.44
8 | B8 | 52.1 | 4.91e-05 | 944000 | 3.92
9 | B9 | 40.4 | 6.09e-05 | 1.51e+06 | 3.16
10 | B10 | 47.4 | 3.69e-05 | 779000 | 5.21
11 | B11 | 69.6 | 6.35e-05 | 912000 | 3.03
12 | B12 | 53.9 | 8.66e-05 | 1.61e+06 | 2.22
13 | B13 | 33.1 | 8.71e-05 | 2.63e+06 | 2.21
14 | B14 | 43.4 | 0.000107 | 2.45e+06 | 1.81
15 | B15 | 56.5 | 0.000113 | 2e+06 | 1.7
16 | B16 | 23.2 | 4.91e-05 | 2.12e+06 | 3.92
17 | B17 | 97 | 8.09e-05 | 834000 | 2.38

The binders below were run against T1, SARS-CoV2 Spike ecto foldon Trimer … (assay: SPR Biacore, mAb captured by anti-hFc, 37C).

Row | Binder | Kd [pM] | koff [s⁻¹] | kon [M⁻¹ s⁻¹] | t½ [h]
18 | B1 | 155 | 0.000161 | 1.03e+06 | 1.2
19 | B2 | 33 | 2.29e-05 | 694000 | 8.4
20 | B3 | 43.7 | 3.25e-05 | 743000 | 5.93
21 | B4 | 50 | 4.08e-05 | 815000 | 4.72
22 | B5 | 77.9 |  |  | 3.22
23 | B6 | 59.9 | 4.76e-05 | 794000 | 4.05
24 | B7 | 162 | 0.000171 | 1.05e+06 | 1.13
25 | B8 | 70.1 | 4.72e-05 | 674000 | 4.08
26 | B9 | 99.1 | 8.97e-05 | 906000 | 2.14
27 | B10 | 51.7 | 3.8e-05 | 735000 | 5.07
28 | B11 | 72.8 | 6.63e-05 | 911000 | 2.91
29 | B12 | 84.7 | 7.32e-05 | 865000 | 2.63
30 | B13 | 54.4 | 0.000141 | 2.59e+06 | 1.37
31 | B14 | 141 | 0.000165 | 1.17e+06 | 1.17
32 | B15 | 98.4 | 9.94e-05 | 1.01e+06 | 1.94
33 | B16 | 77.6 | 7.93e-05 | 1.02e+06 | 2.43
34 | B17 | 139 | 0.000116 | 834000 | 1.66
